One molecule from PMC5910447, “Efficient production of secretory Streptomyces clavuligerus β-lactamase inhibitory protein (BLIP) in Pichia pastoris” (AMB Express, 2018) can be followed below.

This test deals with T1, TEM-1 β-lactamase (UniProt P62593 24-286).
T1 construct: TEM-1 β-lactamase (class A); whether the construct carries a tag or its signal peptide is not known; also called TEM-1 enzyme; source: E. coli haboring pRSET-K/TEM-1 β-lactamase (lab stock); production procedure in Additional file 1: Methods
Kind of test: enzyme inhibition assay (nitrocefin hydrolysis, free β-lactamase against inhibitor concentration); 1.5 nM TEM-1 β-lactamase pre-incubated with 0–15 nM BLIP in 50 mM sodium phosphate buffer with 1 mg/mL bovine serum albumin for 2 h at 25 °C; then 21 μM nitrocefin, absorbance at 500 nm; nonlinear fit to Eq. 1; Ki* (equilibrium dissociation constant) equivalent to Ki.

T1 sequence (P62593 24-286): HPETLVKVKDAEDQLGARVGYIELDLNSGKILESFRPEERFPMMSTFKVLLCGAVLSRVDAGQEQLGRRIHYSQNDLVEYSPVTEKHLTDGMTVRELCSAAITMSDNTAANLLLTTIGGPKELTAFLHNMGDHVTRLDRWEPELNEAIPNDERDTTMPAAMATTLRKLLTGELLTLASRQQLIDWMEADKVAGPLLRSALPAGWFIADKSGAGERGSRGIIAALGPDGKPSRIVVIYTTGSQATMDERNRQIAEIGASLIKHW

B1: β-Lactamase inhibitory protein (BLIP), recombinant, secreted by P. pastoris (EAEAEF-mature BLIP) (natural protein, Streptomyces clavuligerus)
chain: EAEAEFAGVMTGAKFTQIQFGMTRQQVLDIAGAENCETGGSFGDSIHCRGHAAGDYYAYATFGFTSAAADAKVDSKSQEKLLAPSAPTLTLAKFNQVTVGMTRAQVLATVGQGSCTTWSEYYPAYPSTAGVTLSLSCFDVDGYSSTGFYRGSAHLWFTDGVLQGKRQWDLV
notes: peptide left at the N-terminus after Kex2 cleavage of the α-factor mating signal; the blip gene's own terminator was kept, so no C-terminal vector tags are expected (calculated mass 18,219.25 matches EAEAEF-mature BLIP); also called recombinant BLIP; P. pastoris-expressed BLIP; source: P. pastoris X-33 (pPICZαA/BLIP, methanol induction), secreted; recovered from the culture supernatant without …
As a reminder, the Ki is a measure of affinity in units of concentration, obtained from inhibition or displacement. For the molecule B1, the Ki worked out at 0.55 ± 0.07 nM.
